This is an account of results in article PMC3979393 (2014).

Numbering of substitutions follows the chain as printed. In names and notes the source's numbering stands.

Data set [1] in a line: BS3 cross-linking of lysates, IP, anti-DDR1 blot. The conditions noted are these: glycan lost; control: wild-type DDR1b, no collagen.
A short description of data set [2]: reversible biotinylation endocytosis assay, COS1. The note with it: glycan lost; control: wild-type DDR1b.
Data set [3] is described as follows: cell-surface biotinylation, avidin pulldown, anti-Myc blot. The note with it: glycan lost; control: wild-type DDR1b, no collagen.
Data set [4] in a line: anti-Myc blot of surface, intracellular and lysate fractions. The conditions noted are these: glycan lost; control: wild-type DDR1b.
Data set [5] deals with Rat tail collagen type I (rat, UniProt P02454 152-1207; P02466 86-1125). Nature of the data set: ELISA. For orientation: In an ELISA, binding on a coated surface is turned into a signal by an enzyme label.
Sequence of Rat tail collagen type I (P02454 152-1207, chain 1 of 2): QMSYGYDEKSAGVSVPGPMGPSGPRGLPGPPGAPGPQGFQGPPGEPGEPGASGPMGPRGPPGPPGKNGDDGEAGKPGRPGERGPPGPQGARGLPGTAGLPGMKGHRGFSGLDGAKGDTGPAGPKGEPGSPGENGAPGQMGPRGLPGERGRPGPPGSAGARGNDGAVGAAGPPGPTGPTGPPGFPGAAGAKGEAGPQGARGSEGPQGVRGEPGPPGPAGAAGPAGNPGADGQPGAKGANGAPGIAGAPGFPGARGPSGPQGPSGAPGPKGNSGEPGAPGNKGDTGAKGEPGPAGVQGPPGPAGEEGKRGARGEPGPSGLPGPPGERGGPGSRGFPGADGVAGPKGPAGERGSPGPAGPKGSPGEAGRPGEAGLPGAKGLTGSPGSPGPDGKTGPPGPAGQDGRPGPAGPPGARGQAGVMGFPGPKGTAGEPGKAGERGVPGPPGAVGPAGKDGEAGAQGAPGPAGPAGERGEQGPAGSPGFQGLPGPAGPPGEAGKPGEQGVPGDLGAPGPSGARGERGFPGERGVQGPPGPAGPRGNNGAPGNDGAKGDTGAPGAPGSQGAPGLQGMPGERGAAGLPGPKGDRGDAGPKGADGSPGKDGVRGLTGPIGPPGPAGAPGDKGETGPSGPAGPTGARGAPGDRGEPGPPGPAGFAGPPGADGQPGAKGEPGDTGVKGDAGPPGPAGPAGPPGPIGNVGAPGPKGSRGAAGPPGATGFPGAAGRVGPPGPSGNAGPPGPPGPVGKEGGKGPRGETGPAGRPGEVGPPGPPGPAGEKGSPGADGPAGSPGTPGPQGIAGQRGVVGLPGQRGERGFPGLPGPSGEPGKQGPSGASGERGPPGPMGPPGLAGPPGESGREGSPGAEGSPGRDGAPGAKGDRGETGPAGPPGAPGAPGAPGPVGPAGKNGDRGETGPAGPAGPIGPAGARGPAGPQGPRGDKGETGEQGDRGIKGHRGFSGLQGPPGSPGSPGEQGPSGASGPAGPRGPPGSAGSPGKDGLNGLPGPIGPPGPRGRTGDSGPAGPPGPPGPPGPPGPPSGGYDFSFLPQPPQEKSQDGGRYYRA
Sequence of Rat tail collagen type I (P02466 86-1125, chain 2 of 2): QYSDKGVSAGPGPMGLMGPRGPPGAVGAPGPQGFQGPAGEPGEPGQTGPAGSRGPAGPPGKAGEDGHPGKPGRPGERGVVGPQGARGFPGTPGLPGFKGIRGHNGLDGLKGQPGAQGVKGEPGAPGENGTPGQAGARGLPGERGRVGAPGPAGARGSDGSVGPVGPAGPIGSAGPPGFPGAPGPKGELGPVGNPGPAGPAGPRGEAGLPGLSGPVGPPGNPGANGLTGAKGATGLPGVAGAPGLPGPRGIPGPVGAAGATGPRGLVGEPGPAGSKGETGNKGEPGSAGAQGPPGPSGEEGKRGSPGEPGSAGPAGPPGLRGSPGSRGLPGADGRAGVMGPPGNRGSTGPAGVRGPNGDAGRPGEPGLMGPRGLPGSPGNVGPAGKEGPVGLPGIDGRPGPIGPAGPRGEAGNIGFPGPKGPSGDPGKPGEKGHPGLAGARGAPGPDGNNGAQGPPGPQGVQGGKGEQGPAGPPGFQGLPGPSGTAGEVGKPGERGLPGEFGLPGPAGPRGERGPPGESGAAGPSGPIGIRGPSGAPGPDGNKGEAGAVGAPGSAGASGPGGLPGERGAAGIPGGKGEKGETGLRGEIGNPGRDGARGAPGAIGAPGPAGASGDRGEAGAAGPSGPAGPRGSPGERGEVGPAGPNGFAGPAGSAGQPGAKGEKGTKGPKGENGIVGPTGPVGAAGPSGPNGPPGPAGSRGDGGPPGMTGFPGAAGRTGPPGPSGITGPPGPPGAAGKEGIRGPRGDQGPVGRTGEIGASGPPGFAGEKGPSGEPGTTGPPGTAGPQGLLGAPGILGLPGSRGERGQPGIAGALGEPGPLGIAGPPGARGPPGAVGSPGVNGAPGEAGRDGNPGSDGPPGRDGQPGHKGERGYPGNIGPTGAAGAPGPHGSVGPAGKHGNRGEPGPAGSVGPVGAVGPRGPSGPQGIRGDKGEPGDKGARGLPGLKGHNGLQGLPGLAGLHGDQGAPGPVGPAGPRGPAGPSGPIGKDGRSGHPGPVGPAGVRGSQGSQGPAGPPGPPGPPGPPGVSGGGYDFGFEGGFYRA

B1: Discoidin domain receptor 1 (DDR1b): N211Q (protein)
parent chain: MGPEALSSLLLLLLVASGDADMKGHFDPAKCRYALGMQDRTIPDSDISASSSWSDSTAARHSRLESSDGDGAWCPAGSVFPKEEEYLQVDLQRLHLVALVGTQGRHAGGLGKEFSRSYRLRYSRDGRRWMGWKDRWGQEVISGNEDPEGVVLKDLGPPMVARLVRFYPRADRVMSVCLRVELYGCLWRDGLLSYTAPVGQTMYLSEAVYLNDSTYDGHTVGGLQYGGLGQLADGVVGLDDFRKSQELRVWPGYDYVGWSNHSFSSGYVEMEFEFDRLRAFQAMQVHCNNMHTLGARLPGGVECRFRRGPAMAWEGEPMRHNLGGNLGDPRARAVSVPLGGRVARFLQCRFLFAGPWLLFSEISFISDVVNNSSPALGGTFPPAPWWPPGPPPTNFSSLELEPRGQQPVAKAEGSPTAILIGCLVAIILLLLLIIALMLWRLHWRRLLSKAERRVLEEELTVHLSVPGDTILINNRPGPREPPPYQEPRPRGNPPHSAPCVPNGSALLLSNPAYRLLLATYARPPRGPGPPTPAWAKPTNTQAYSGDYMEPEKPGAPLLPPPPQNSVPHYAEADIVTLQGVTGGNTYAVPALPPGAVGDGPPRVDFPRSRLRFKEKLGEGQFGEVHLCEVDSPQDLVSLDFPLNVRKGHPLLVAVKILRPDATKNARNDFLKEVKIMSRLKDPNIIRLLGVCVQDDPLCMITDYMENGDLNQFLSAHQLEDKAAEGAPGDGQAAQGPTISYPMLLHVAAQIASGMRYLATLNFVHRDLATRNCLVGENFTIKIADFGMSRNLYAGDYYRVQGRAVLPIRWMAWECILMGKFTTASDVWAFGVTLWEVLMLCRAQPFGQLTDEQVIENAGEFFRDQGRQVYLSRPPACPQGLYELMLRCWSRESEQRPPFSQLHRFLAEDALNTV
As to B1, the oligomerisation result in data set [1] is listed as “increases”. Also, the localisation_or_trafficking result is recorded as “decreases” in data set [2] and “no change” in data set [3]. In data set [4], the expression_or_secretion entry is listed as “no change”.

B2: DDR1b ectodomain (ECD) harboring an IgG2 Fc fragment at the C-terminal end, N211Q (Fc fusion)
chain: DADMKGHFDPAKCRYALGMQDRTIPDSDISASSSWSDSTAARHSRLESSDGDGAWCPAGSVFPKEEEYLQVDLQRLHLVALVGTQGRHAGGLGKEFSRSYRLRYSRDGRRWMGWKDRWGQEVISGNEDPEGVVLKDLGPPMVARLVRFYPRADRVMSVCLRVELYGCLWRDGLLSYTAPVGQTMYLSEAVYLQDSTYDGHTVGGLQYGGLGQLADGVVGLDDFRKSQELRVWPGYDYVGWSNHSFSSGYVEMEFEFDRLRAFQAMQVHCNNMHTLGARLPGGVECRFRRGPAMAWEGEPMRHNLGGNLGDPRARAVSVPLGGRVARFLQCRFLFAGPWLLFSEISFISDVVNNSSPALGGTFPPAPWWPPGPPPTNFSSLELEPRGQQPVAKAEGSPT
Usually Kd stands for the free concentration of one partner at which half of the binding sites on the other are occupied at equilibrium, for simple one-to-one binding. The low end stands for higher affinity, the high end for lower affinity. In data set [5], B2 came in with a Kd of 4.75 nM.

B3: DDR1b ectodomain (ECD) harboring an IgG2 Fc fragment at the C-terminal end, wild type (Fc fusion)
chain: B2 chain with Q193N
In data set [5], B3 displayed a Kd of 3.33 nM.
